According to US12064464B2, “Plantaricin NC8 alpha beta markedly enhances the effects of antibiotics” (priority 2018, dated 2024):
Entries after “also recorded” stand apart in the source; their conditions may differ.

Legend:
[1] = system: S. aureus CCUG 35601 (MRSA); assay: Broth microdilution MIC/MBC; type: cell-based, Staphylococcus aureus
Text: (§1) Staphylococcus aureus CCUG 35601 (MRSA, Culture Collection, University of Gothenburg) and Staphylococcus aureus ATCC 29213 (MSSA, ATCC, Manassas, VA). Staphylococcus epidermidis ATCC 12228 (ATCC, Manassas, VA), RP62A, N15 and 10 clinical isolates of Staphylococcus epidermidis that have previously been characterized. Isolated Escherichia coli, Enterococcus faecium (including VRE), Pseudomonas aeruginosa, Klebsiella pneumoniae, Enterobacter spp and Acinetobacter baumannii were obtained from Orebro University hospital. Isolated Streptococcus mutans, Streptococcus constellatus and Streptococcus anginosus were obtained from Malmo University. The bacteria were grown on Luria-Bertani (LB) agar plates, supplemented with 5% defibrinated horse blood, and incubated at 37° C. overnight. Single colonies were inoculated into 5 ml of LB broth and incubated on a shaker (300 rpm) at 37° C. overnight. The bacterial concentration was determined by viable count and adjusted to correlate with approximately 10^9 CFU/ml.
(§2) The broth microdilution method was used to determine minimal inhibitory concentration (MIC) and minimal bactericidal concentration (MBC). Two-fold serial dilutions of the peptides were used and the final concentrations ranged from 0.097-50 μM. […] The effect of bacteriocin-antibiotic combinations was accomplished by using the same concentration series of antibiotics with a constant concentration of PLNC8 αβ (3.1 μM) in all the wells. […] All experiments were repeated at least three times.

[2] = system: S. aureus ATCC 29213 (MSSA); assay: Broth microdilution MIC/MBC; type: cell-based, Staphylococcus aureus; conditions: Table 1, peptide alone, 20 h; no unit in table, μM
Text: as §1, §2

[3] = system: S. epidermidis RP62A; assay: Broth microdilution MIC/MBC; type: cell-based, Staphylococcus epidermidis; conditions: Table 1, peptide alone, 20 h; no unit in table, μM
Text: as §1, §2

[4] = system: S. epidermidis 157 (hGISE strain); assay: Broth microdilution MIC/MBC; type: cell-based, Staphylococcus epidermidis; conditions: Table 3, peptide alone
Text: as §1, §2

[5] = system: S. epidermidis N15; assay: Broth microdilution MIC/MBC; type: cell-based, Staphylococcus epidermidis; conditions: Table 1, peptide alone, 20 h; no unit in table, μM
Text: as §1, §2

[6] = system: S. epidermidis ATCC 12228; assay: Broth microdilution MIC/MBC; type: cell-based, Staphylococcus epidermidis
Text: as §1, §2

[7] = system: S. epidermidis 126 (hGISE strain); assay: Broth microdilution MIC/MBC; type: cell-based, Staphylococcus epidermidis; conditions: Table 3, peptide alone
Text: as §1, §2

[8] = system: S. epidermidis 117; assay: Broth microdilution MIC/MBC; type: cell-based, Staphylococcus epidermidis; conditions: Table 1, peptide alone, 20 h; no unit in table, μM
Text: as §1, §2

[9] = system: S. epidermidis 154; assay: Broth microdilution MIC/MBC; type: cell-based, Staphylococcus epidermidis; conditions: Table 3, peptide alone
Text: as §1, §2

[10] = references 1, 2; cited from earlier work
[11] = system: keratinocytes infected by S. aureus; assay: IncuCyte live-cell analysis of infected keratinocytes; type: cell-based, human
Method: (§3) HaCaT cells were cultured overnight in a 24-well plate at a seed-count of 2×10^5 cells per well. […] Co-stimulation was performed by infection of human keratinocytes, in the presence or absence of PLNC8 αβ, for 24 h, or infection of the cells for 1 h followed by addition of different concentrations of PLNC8 αβ for 6 h. Furthermore, infection of keratinocytes, with or without PLNC8 αβ, were monitored in real-time for 72 hours using IncuCyte Live-cell Analysis System. Bacterial load was quantified by measuring the fluorescence of green fluorescent protein (GFP) and cell viability was determined by measuring the fluorescent dye Draq7 that stains nuclei of dead cells.

[12] = system: wounds infected with S. aureus; assay: Porcine wound model; type: in vivo, pig; conditions: PLNC8αβ 50 μM, every other day, 7 days
Text: Three wounds were created per condition with the following conditions: control (PBS), […]/gentamicin and […]8 αβ. […] The pig was returned to the pen and monitored during recovery from anesthesia. […] This procedure was repeated every other day for seven days (a total of four doses of treatment of the infected wounds).

[13] = system: HaCaT cells infected with MSSA; assay: Keratinocytes infected with MSSA: LDH, ELISA, RT-qPCR, scratch assay
Method: Human keratinocytes (HaCaT) were cultured in Dulbecco's modified Eagle medium (DMEM, Fisher Scientific, New York, USA) supplemented with 10% FBS (FBS, Invitrogen Ltd, Paisley, UK) incubated in a stable environment at 95% air, 5% CO2 and 37° C. The cells were used at passages 1-20.
as §3
ELISA was performed on supernatants retrieved from human keratinocytes that were exposed to MSSA and PLNC8 αβ. The levels of CXCL8 (Human IL-8 ELISA MAX Deluxe, Nordic Biosite, Sweden) and IL-6 (Human IL-6 ELISA MAX Deluxe, Nordic Biosite, Sweden) were quantified according to the manufacturer's instructions.

[14] = Table 1, peptide alone, 20 h, no unit in table, μM
[15] = infection 1 h, then peptide 6 h

B1: PLNC8 αβ: two-peptide class IIb bacteriocin of L. plantarum NC8: PLNC8 α (SEQ ID NO 1) with PLNC8 β (SEQ ID NO 2) (peptide)
alpha: DLTTKLWSSWGYYLGKKARWNLKHPYVQF
beta: SVPTSVYTLGIKILWSAYKHRKTIEKSFNKGFYH
modifications: Lactobacillus plantarum NC8
Question: Which MBC [1, 14] does the source give for B1 here?
Answer: 25 µM

Question: And the MIC [1, 14]?
Answer: 12.5 µM

Question: And the MBC ([1]; Table 3, MRSA, peptide alone)?
Answer: 25 µM

Question: And the MIC ([1]; Table 3, MRSA, peptide alone)?
Answer: 12.5 µM

Question: And the MBC [2]?
Answer: 25 µM

Question: What about the MIC [2] of the same molecule?
Answer: 12.5 µM

Question: What about the MBC [3] of the same molecule?
Answer: 6.25 µM

Question: What about the MIC [3] of the same molecule?
Answer: 6.25 µM

Question: And the MBC [4]?
Answer: >50 µM

Question: What about the MIC [4] of the same molecule?
Answer: 12.5 µM

Question: And the MBC [5]?
Answer: 6.25 µM

Question: And the MIC [5]?
Answer: 6.25 µM

Question: And the “molar ratio PLNC8 α to PLNC8 β for inhibiting and killing” value ([6]; 20 h)?
Answer: molar ratio of 1:1 is most efficient at inhibiting and killing S. epidermidis; also recorded: ratios between 1:1 and 1:7 were also found to be effective

Question: And the “molar ratio PLNC8 α to PLNC8 β for inhibiting and killing” value ([6]; 20 h, listed as PLNC8αβ)?
Answer: molar ratio of 1:1 is most efficient at inhibiting and killing S. epidermidis

Question: What about the MBC [6, 14] of the same molecule?
Answer: 12.5 µM

Question: And the MIC [6, 14]?
Answer: 6.25 µM

Question: And the MBC ([6]; Table 2, peptide alone)?
Answer: 12.5 µM

Question: And the MIC ([6]; Table 2, peptide alone)?
Answer: 6.25 µM

Question: And the MBC [7]?
Answer: 50 µM

Question: And the MIC [7]?
Answer: 12.5 µM

Question: And the MBC [8]?
Answer: 12.5 µM

Question: What about the MIC [8] of the same molecule?
Answer: 12.5 µM

Question: What about the MBC [9] of the same molecule?
Answer: 12.5 µM

Question: And the MIC [9]?
Answer: 6.25 µM

Question: And the cell proliferation [10]?
Answer: stimulates cell proliferation

Question: And the “bacterial growth (GFP fluorescence) prevented and delayed” value ([11]; S. aureus MOI:0.1)?
Answer: up to 38 h

Question: What about the “time for which a single dose prevented bacterial growth and protected the cells” value ([11]; S. aureus MOI:0.1) of the same molecule?
Answer: up to 42 h

Question: And the “time for which a single dose prevented bacterial growth and protected the cells” value ([11]; S. aureus MOI:1)?
Answer: up to 32 h

Question: What about the “infection and wound healing in vivo” value [12] of the same molecule?
Answer: inhibited infection and promoted wound healing in vivo

Question: What about the “S. aureus-mediated cytotoxicity (LDH) and cell viability” value [13, 15] of the same molecule?
Answer: antagonized S. aureus-mediated cytotoxicity and inflammatory responses, and promoted cell viability

Question: What about the “secretion of IL-6 and CXCL8” value [13, 15] of the same molecule?
Answer: significantly reduced

Question: And the “secretion of IL-6 and CXCL8” value ([13]; infection with MSSA, 24 h)?
Answer: reduced bacteria-induced secretion of IL-6 and CXCL8

Question: And the “wound healing (scratch assay)” value ([13]; infection with MSSA, 24 h)?
Answer: promoted wound healing in vitro of human keratinocytes following an infection with S. aureus
